Patent US20210340548A1

Experiments:
Test in all cases: cell-based or functional assay
[1] = molecular target: NLSx2-p65 AD-Cry2 PHR (L348F) (human; Arabidopsis thaliana)
[2] = molecular target: p65 AD-Cry2 535 (human; Arabidopsis thaliana) (UniProt Q04206)
[3] = molecular target: p65 AD-Cry2 PHR (human; Arabidopsis thaliana) (UniProt Q04206)
[4] = molecular target: Cry2 PHR (L348F)-p65 AD-NLSx2
[5] = molecular target: Cry2 PHR-p65 AD (Arabidopsis thaliana; human) (UniProt Q96524)
[6] = molecular target: Cry2 PHR-p65 AD-NLSx2 (Arabidopsis thaliana; human)
[7] = molecular target: NLSx2-p65 AD-Cry2 PHR (human; Arabidopsis thaliana)
[8] = molecular target: p65 AD-Cry2 535 (L348F) (human; Arabidopsis thaliana) (UniProt Q04206)
[9] = molecular target: p65 AD-Cry2 PHR (L348F) (human; Arabidopsis thaliana) (UniProt Q04206)
[10] = molecular target: Cry2 PHR (L348F)-p65 AD (Arabidopsis thaliana; human) (UniProt Q96524)

Substance	Average of the Light/Dark ratio [1]	Light/Dark [1]	Ub-ELuc luciferase, Dark [1]	Ub-ELuc luciferase, Light [1]	Average of the Light/Dark ratio [2]	Light/Dark [2]	Ub-ELuc luciferase, Dark [2]	Ub-ELuc luciferase, Light [2]	Average of the Light/Dark ratio [3]	Light/Dark [3]	Ub-ELuc luciferase, Dark [3]	Ub-ELuc luciferase, Light [3]	Average of the Light/Dark ratio [4]	Light/Dark [4]	Ub-ELuc luciferase, Dark [4]	Ub-ELuc luciferase, Light [4]	Average of the Light/Dark ratio [5]	Light/Dark [5]	Ub-ELuc luciferase, Dark [5]	Ub-ELuc luciferase, Light [5]	other results
TetR (I194T, 1-206)-SPKKK-CIB1 full	1.7	1.8	19.3 relative	34.3 relative	2.1	2.1	4.3 relative	8.7 relative	1.6	1.6	13.8 relative	20.7 relative	1	1.4	5.1 relative	6.8 relative	1.5	1.7	2.4 relative	4.1 relative	Average of the Light/Dark ratio [6]: 0.9; Light/Dark [6]: 0.8; Ub-ELuc luciferase, Dark [6]: 20.1 relative; Ub-ELuc luciferase, Light [6]: 16.6 relative; Average of the Light/Dark ratio [7]: 1.9; Light/Dark [7]: 2.4; Ub-ELuc luciferase, Dark [7]: 21.9 relative; Ub-ELuc luciferase, Light [7]: 50.9 relative; Average of the Light/Dark ratio [8]: 2; Light/Dark [8]: 2.3; Ub-ELuc luciferase, Dark [8]: 4.8 relative; Ub-ELuc luciferase, Light [8]: 10.5 relative; Average of the Light/Dark ratio [9]: 1.7; Light/Dark [9]: 2.2; Ub-ELuc luciferase, Dark [9]: 8.3 relative; Ub-ELuc luciferase, Light [9]: 17.2 relative; Average of the Light/Dark ratio [10]: 1.6; Light/Dark [10]: 1.6; Ub-ELuc luciferase, Dark [10]: 2.7 relative; Ub-ELuc luciferase, Light [10]: 4.3 relative
TetR (I194T, 1-206)-SPKKK-CIB1 full no NLS	1.4	1.9	50.2 relative	86.8 relative	2	3.3	10.4 relative	31.8 relative	1.5	2	36.2 relative	65.2 relative	0.9	1.2	11.3 relative	12.4 relative	1.4	2	3 relative	5.4 relative	Average of the Light/Dark ratio [6]: 0.9; Light/Dark [6]: 0.9; Ub-ELuc luciferase, Dark [6]: 30.1 relative; Ub-ELuc luciferase, Light [6]: 25.2 relative; Average of the Light/Dark ratio [7]: 1.6; Light/Dark [7]: 2.2; Ub-ELuc luciferase, Dark [7]: 56 relative; Ub-ELuc luciferase, Light [7]: 109 relative; Average of the Light/Dark ratio [8]: 2; Light/Dark [8]: 2.7; Ub-ELuc luciferase, Dark [8]: 9.3 relative; Ub-ELuc luciferase, Light [8]: 23.9 relative; Average of the Light/Dark ratio [9]: 1.4; Light/Dark [9]: 1.6; Ub-ELuc luciferase, Dark [9]: 33 relative; Ub-ELuc luciferase, Light [9]: 47.9 relative; Average of the Light/Dark ratio [10]: 1.2; Light/Dark [10]: 1.5; Ub-ELuc luciferase, Dark [10]: 4.8 relative; Ub-ELuc luciferase, Light [10]: 7.2 relative
